Where a chain is given by its changes, count along the chain named.
B1: [99mTc]Tc(CO)3-H6-G3 (DARPin G3 with a hexahistidine tag at the N-terminus) (designed binder)
chain: MRGSHHHHHHGSDLGKKLLEAARAGQDDEVRILMANGADVNAKDEYGLTPLYLATAHGHLEIVEVLLKNGADVNAVDAIGFTPLHLAAFIGHLEIAEVLLKHGADVNAQDKFGKTAFDISIGNGNEDLAEILQKLN
modifications: [99mTc]Tc(CO)3 on the histidine-containing tag (site-specific radiolabel)
notes: whole chain as printed; source: E. coli BL21(DE3), purified (HisTrap HP, MonoQ); not shown: His6, N-terminal, kept
B2: [99mTc]Tc(CO)3-(HE)3-G3 (DARPin G3 with a HEHEHE tag at the N-terminus) (designed binder)
chain: B1 chain with H6E, H8E, H10E
modifications: [99mTc]Tc(CO)3 on the histidine-containing tag (site-specific radiolabel)
notes: whole chain as printed; source: E. coli BL21(DE3), purified (HisTrap HP without imidazole in lysate and wash, MonoQ); not shown: (HE)3 (HEHEHE), N-terminal, kept
B3: [99mTc]Tc(CO)3-G3-H6 (DARPin G3 with a hexahistidine tag at the C-terminus) (designed binder)
chain: MDLGKKLLEAARAGQDDEVRILMANGADVNAKDEYGLTPLYLATAHGHLEIVEVLLKNGADVNAVDAIGFTPLHLAAFIGHLEIAEVLLKHGADVNAQDKFGKTAFDISIGNGNEDLAEILQKLNGSHHHHHH
modifications: [99mTc]Tc(CO)3 on the histidine-containing tag (site-specific radiolabel)
notes: whole chain as printed; source: E. coli BL21(DE3), purified (HisTrap HP, MonoQ); not shown: His6, C-terminal, kept
B4: [99mTc]Tc(CO)3-G3-(HE)3 (DARPin G3 with a HEHEHE tag at the C-terminus) (designed binder)
chain: DLGKKLLEAARAGQDDEVRILMANGADVNAKDEYGLTPLYLATAHGHLEIVEVLLKNGADVNAVDAIGFTPLHLAAFIGHLEIAEVLLKHGADVNAQDKFGKTAFDISIGNGNEDLAEILQKLNGSHEHEHE
modifications: [99mTc]Tc(CO)3 on the histidine-containing tag (site-specific radiolabel)
notes: whole chain as printed (after removal of SUMO at QIGG/DLGKK); source: E. coli BL21(DE3), made as a His6-SUMO fusion, purified (HisTrap HP, cut with ULP1, HisTrap flow-through, MonoQ); not shown: (HE)3 (HEHEHE), C-terminal, kept

Biological target: T1, human epidermal growth factor receptor (HER2) (human (endogenous in SKOV3, BT474, …, UniProt P04626 23-1255))
T1 construct: HER2, endogenous on the human cancer cell lines SKOV3, BT474 (high expression) and DU145 (low expression); source: endogenous, on living SKOV3, BT474 and DU145 cells
Assay: radioligand binding; LigandTracer, real time, living SKOV3 cells, room temperature; 0.5 and 2 nM radiolabeled G3 variant, then medium replaced for dissociation; fitted to a one-to-two Langmuir binding model (TraceDrawer); duplicates
Details: one partner purified

Row | KD1 (high affinity interaction of the one-to-two fit) [pM] | KD2 (low affinity interaction of the one-to-two fit) [nM] | Binder
1 | 90 ± 5 | 3.3 ± 0.2 | B1
2 | 96 ± 3 | 1.2 ± 0.1 | B2
3 | 118 ± 38 | 2.5 ± 1.5 | B3
4 | 89 ± 11 | 1.8 ± 0.5 | B4

— article PMC6599047, “Optimal composition and position of histidine-containing tags improves biodistribution of ^99mTc-labeled DARPin G3” (Scientific Reports, 2019)
